Laboratory results as given in patent US20220202905A1, “COMPOSITION FOR PREVENTING OR TREATING NEUROTROPHIC KERATITIS WHICH CONTAINS PACAP PEPTIDE OR STABILIZED PACAP PEPTIDE” (SENJU PHARMACEUTICAL CO., LTD., priority 2019, published 2022).
Square brackets hold non-standard residues; d marks the D form. Peptide text beside a SMILES is read from it. * marks the point of attachment. Ala(1H-tetrazol-5-yl) = N[C@@H](Cc1nnn[nH]1)C(=O)O; Nle = CCCC[C@H](N)C(=O)O; Ms = CS(=O)(=O)*

Assays:
[1] = Peptide stability test, phosphate buffer (pH 7.0), 40° C. storage, HPLC remaining rate; format: physicochemical; details: for remaining rate after correction for water, 40° C., 1 month preservation / remaining rate after correction for water, 40° C., 2 months preservation: 100 μM in phosphate buffer pH 7.0; for stability in aqueous solution (in words), 40° C. storage: phosphate buffer pH 7.0, 1 or 2 months
Method: Peptides 1 and 3 to 5 synthesized in Example 2 were weighed and dissolved in phosphate buffer (pH 7.0) to prepare 1.0 mM peptide solutions. The 1.0 mM peptide solutions were then diluted with phosphate buffer to 100 μM. After filtering with Chromatdisk (product of Merck Millipore, Millex-GV, 0.22 μm), each filtrate was dispensed into an LC vial (Waters Deactivated […] prepared peptide solutions were incubated for one month or 2 months in a 40° C. thermostatic bath to obtain stored samples. A simultaneously prepared sample among the peptide solutions that was not stored was used as a standard sample (initial sample). The standard sample and the stored samples were stored at -30° C. until sample analysis. Using the total weight of the aqueous peptide solution and storage vessel as the specimen weight, measurements were recorded as the specimen weights before storage and the specimen weights after storage under different storage conditions. The empty weight of the storage vessel was also measured, and the moisture permeability was determined by the following formula. After stirring the standard sample and the stored samples with a vortex mixer, each peptide solution was transferred to an HPLC vial (Deactivated Qsert vial by Waters Co.). Reverse-phase HPLC (HPLC system: Prominence by Shimadzu Corp.) was conducted under the conditions shown in Table 3 below for analysis of the peptide solutions, and chromatograms were obtained. Guard column: XSelect CSH C18 by Waters Co., 5 μm, 4.6×20 mm Guard Cartridge Detection wavelength: 220 nm Mobile phase A: 0.1% formic acid aqueous solution Mobile phase B: 0.1% acetonitrile formate solution Measuring time: 30 minutes Measuring sample injection rate: 50 μL Flow rate: 1.0 mL/min Sample cooler: 4° C. Column temperature: 40° C. Mobile phase delivery: The mixing ratio of mobile phase A and mobile phase B was varied as shown in Table 3 for linear concentration gradient control. The peak area value for the peptide in the chromatogram was calculated, and the remaining rate (remaining rate before correction for water) was calculated using formula (2). The remaining rate after correction for water was also calculated from the remaining rate before correction for water using formula (3), taking into account the moisture permeability of the vessel. Peptides 10 and 11 synthesized in Example 2 were weighed and dissolved in phosphate buffer (pH 7.0) to prepare 1.0 mM peptide solutions. Each solution was filtered with a Chromatdisk (product of Merck Millipore. Millex-GV, 0.22 μm). Each filtrate was diluted to 100 μM with phosphate buffer (pH 7.0) and dispensed into a tube (Protein LoBind Tube by Eppendorf Co.). The prepared peptide solutions were incubated for one month or 2 months in a 40° C. thermostatic bath to obtain stored samples. A simultaneously prepared sample among the peptide solutions that was not stored was used as a standard sample (initial sample). The standard sample and the stored samples were stored at -30° C. until sample analysis. The remaining rate after correction for water for each peptide among the stored samples was measured in the same manner as Example 4, and the results are shown in Table 8.

VPAC1 receptor = biological target: T1, VPAC1 receptor (UniProt P32241 31-457, limits assumed); assay: cell-based or functional assay
T1 sequence (looked up): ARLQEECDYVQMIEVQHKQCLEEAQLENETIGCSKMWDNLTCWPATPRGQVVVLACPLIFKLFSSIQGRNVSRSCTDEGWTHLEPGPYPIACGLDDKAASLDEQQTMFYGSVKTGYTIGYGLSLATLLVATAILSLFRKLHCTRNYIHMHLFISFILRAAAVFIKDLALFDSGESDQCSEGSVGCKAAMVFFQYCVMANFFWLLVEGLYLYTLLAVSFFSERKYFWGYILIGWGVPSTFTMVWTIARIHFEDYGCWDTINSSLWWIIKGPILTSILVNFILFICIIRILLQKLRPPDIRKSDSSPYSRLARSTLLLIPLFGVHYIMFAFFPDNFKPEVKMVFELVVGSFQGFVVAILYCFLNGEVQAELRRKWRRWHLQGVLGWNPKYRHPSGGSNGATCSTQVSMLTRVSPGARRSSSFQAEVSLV

PAC1 receptor = biological target: T2, PAC1 receptor (UniProt P41586 21-468, limits assumed); assay: cell-based or functional assay
T2 sequence (looked up): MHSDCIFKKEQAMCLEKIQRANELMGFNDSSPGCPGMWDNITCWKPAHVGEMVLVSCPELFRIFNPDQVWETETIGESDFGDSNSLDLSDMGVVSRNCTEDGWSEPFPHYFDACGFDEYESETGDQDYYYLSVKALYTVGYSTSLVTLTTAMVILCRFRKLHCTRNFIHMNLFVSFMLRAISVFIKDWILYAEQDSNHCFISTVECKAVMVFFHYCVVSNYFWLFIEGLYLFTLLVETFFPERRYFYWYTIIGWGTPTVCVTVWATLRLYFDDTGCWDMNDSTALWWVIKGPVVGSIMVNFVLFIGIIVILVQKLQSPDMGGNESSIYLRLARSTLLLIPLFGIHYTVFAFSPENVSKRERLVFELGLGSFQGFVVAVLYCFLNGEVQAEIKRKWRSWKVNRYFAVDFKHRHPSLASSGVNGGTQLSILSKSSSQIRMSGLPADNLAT

[2] = Table 8, measured as in Example 4

CC[C@H](C)[C@H](NC(=O)CNC(=O)[C@H](Cc1nnn[nH]1)NC(=O)[C@H](CO)NC(=O)[C@@H](N)Cc1c[nH]cn1)C(=O)N[C@@H](Cc1ccccc1)C(=O)N[C@H](C(=O)N[C@@H](Cc1nnn[nH]1)C(=O)N[C@@H](CO)C(=O)N[C@@H](Cc1ccc(O)cc1)C(=O)N[C@@H](CO)C(=O)N[C@@H](CCCNC(=N)N)C(=O)N[C@@H](Cc1ccc(O)cc1)C(=O)N[C@@H](CCCNC(=N)N)C(=O)N[C@@H](CCCCN)C(=O)N[C@@H](CCC(N)=O)C(=O)N[C@@H](CCSC)C(=O)N[C@@H](C)C(=O)N[C@H](C(=O)N[C@@H](CCCCN)C(=O)N[C@@H](CCCCN)C(=O)N[C@@H](Cc1ccc(O)cc1)C(=O)N[C@@H](CC(C)C)C(=O)N[C@@H](C)C(=O)N[C@@H](C)C(=O)N[C@H](C(=O)N[C@@H](CC(C)C)C(N)=O)C(C)C)C(C)C)[C@@H](C)O [Peptide 5] (H-HS[Ala(1H-tetrazol-5-yl)]GIFT[Ala(1H-tetrazol-5-yl)]SYSRYRKQMAVKKYLAAVL-NH2)
remaining rate after correction for water, 40° C., 1 month preservation ([1]; Table 4, HPLC conditions 1): 94.7% | remaining rate after correction for water, 40° C., 2 months preservation ([1]; Table 4, HPLC conditions 1): 85.6% | stability in aqueous solution (in words), 40° C. storage [1]: further increased stability over peptide 3 and peptide 4

CCCC[C@H](NC(=O)[C@H](CCC(N)=O)NC(=O)[C@H](CCCCN)NC(=O)[C@H](CCCNC(=N)N)NC(=O)[C@H](Cc1ccc(O)cc1)NC(=O)[C@H](CCCNC(=N)N)NC(=O)[C@H](CO)NC(=O)[C@H](Cc1ccc(O)cc1)NC(=O)[C@H](CO)NC(=O)[C@H](Cc1nnn[nH]1)NC(=O)[C@@H](NC(=O)[C@H](Cc1ccccc1)NC(=O)[C@@H](NC(=O)CNC(=O)[C@H](Cc1nnn[nH]1)NC(=O)[C@H](CO)NC(=O)[C@H](Cc1c[nH]cn1)NS(C)(=O)=O)[C@@H](C)CC)[C@@H](C)O)C(=O)N[C@@H](C)C(=O)N[C@H](C(=O)N[C@@H](CCCCN)C(=O)N[C@@H](CCCCN)C(=O)N[C@@H](Cc1ccc(O)cc1)C(=O)N[C@@H](CC(C)C)C(=O)N[C@@H](C)C(=O)N[C@@H](C)C(=O)N[C@H](C(=O)N[C@@H](CC(C)C)C(N)=O)C(C)C)C(C)C [Peptide 11] (Ms-HS[Ala(1H-tetrazol-5-yl)]GIFT[Ala(1H-tetrazol-5-yl)]SYSRYRKQ[Nle]AVKKYLAAVL-NH2)
remaining rate after correction for water, 40° C., 1 month preservation [1, 2]: 94.2% | remaining rate after correction for water, 40° C., 2 months preservation [1, 2]: 88.8% | stability in aqueous solution (in words), 40° C. storage [1]: stabilized to the same degree

B1: Peptide 30 (peptide)
peptide: HSXAIFTXSYSRYRKQLAVKKYLAAVL
modifications: N-terminal mesyl (Ms-); Tz (aspartic acid with carboxyl group replaced by tetrazole) at positions 3 and 8; C-terminal amide (NH2)
EC50 (VPAC1R), cAMP inducing effect (VPAC1 receptor): 0.057 nM | EC50 (PAC1R), cAMP inducing effect (PAC1 receptor): 0.032 nM

B2: Peptide 32 (peptide)
peptide: Ac-HS[Ala(1H-tetrazol-5-yl)]AIFT[Ala(1H-tetrazol-5-yl)]SYSRYRKQAAVKKYLAAVL-NH2
SMILES: CC[C@H](C)[C@H](NC(=O)[C@H](C)NC(=O)[C@H](Cc1nnn[nH]1)NC(=O)[C@H](CO)NC(=O)[C@H](Cc1c[nH]cn1)NC(C)=O)C(=O)N[C@@H](Cc1ccccc1)C(=O)N[C@H](C(=O)N[C@@H](Cc1nnn[nH]1)C(=O)N[C@@H](CO)C(=O)N[C@@H](Cc1ccc(O)cc1)C(=O)N[C@@H](CO)C(=O)N[C@@H](CCCNC(=N)N)C(=O)N[C@@H](Cc1ccc(O)cc1)C(=O)N[C@@H](CCCNC(=N)N)C(=O)N[C@@H](CCCCN)C(=O)N[C@@H](CCC(N)=O)C(=O)N[C@@H](C)C(=O)N[C@@H](C)C(=O)N[C@H](C(=O)N[C@@H](CCCCN)C(=O)N[C@@H](CCCCN)C(=O)N[C@@H](Cc1ccc(O)cc1)C(=O)N[C@@H](CC(C)C)C(=O)N[C@@H](C)C(=O)N[C@@H](C)C(=O)N[C@H](C(=O)N[C@@H](CC(C)C)C(N)=O)C(C)C)C(C)C)[C@@H](C)O
EC50 (VPAC1R), cAMP inducing effect (VPAC1 receptor): 0.076 nM | EC50 (PAC1R), cAMP inducing effect (PAC1 receptor): 0.148 nM

B3: Peptide 31 (peptide)
peptide: Ms-HS[Ala(1H-tetrazol-5-yl)]AIFT[Ala(1H-tetrazol-5-yl)]SYSRYRKQAAVKKYLAAVL-NH2
SMILES: CC[C@H](C)[C@H](NC(=O)[C@H](C)NC(=O)[C@H](Cc1nnn[nH]1)NC(=O)[C@H](CO)NC(=O)[C@H](Cc1c[nH]cn1)NS(C)(=O)=O)C(=O)N[C@@H](Cc1ccccc1)C(=O)N[C@H](C(=O)N[C@@H](Cc1nnn[nH]1)C(=O)N[C@@H](CO)C(=O)N[C@@H](Cc1ccc(O)cc1)C(=O)N[C@@H](CO)C(=O)N[C@@H](CCCNC(=N)N)C(=O)N[C@@H](Cc1ccc(O)cc1)C(=O)N[C@@H](CCCNC(=N)N)C(=O)N[C@@H](CCCCN)C(=O)N[C@@H](CCC(N)=O)C(=O)N[C@@H](C)C(=O)N[C@@H](C)C(=O)N[C@H](C(=O)N[C@@H](CCCCN)C(=O)N[C@@H](CCCCN)C(=O)N[C@@H](Cc1ccc(O)cc1)C(=O)N[C@@H](CC(C)C)C(=O)N[C@@H](C)C(=O)N[C@@H](C)C(=O)N[C@H](C(=O)N[C@@H](CC(C)C)C(N)=O)C(C)C)C(C)C)[C@@H](C)O
EC50 (VPAC1R), cAMP inducing effect (VPAC1 receptor): 0.035 nM | EC50 (PAC1R), cAMP inducing effect (PAC1 receptor): 0.034 nM

B4: Peptide 33 (peptide)
peptide: Ac-HA[Ala(1H-tetrazol-5-yl)]AIFT[Ala(1H-tetrazol-5-yl)]SYSRYRKQAAVKKYLAAVL-NH2
SMILES: CC[C@H](C)[C@H](NC(=O)[C@H](C)NC(=O)[C@H](Cc1nnn[nH]1)NC(=O)[C@H](C)NC(=O)[C@H](Cc1c[nH]cn1)NC(C)=O)C(=O)N[C@@H](Cc1ccccc1)C(=O)N[C@H](C(=O)N[C@@H](Cc1nnn[nH]1)C(=O)N[C@@H](CO)C(=O)N[C@@H](Cc1ccc(O)cc1)C(=O)N[C@@H](CO)C(=O)N[C@@H](CCCNC(=N)N)C(=O)N[C@@H](Cc1ccc(O)cc1)C(=O)N[C@@H](CCCNC(=N)N)C(=O)N[C@@H](CCCCN)C(=O)N[C@@H](CCC(N)=O)C(=O)N[C@@H](C)C(=O)N[C@@H](C)C(=O)N[C@H](C(=O)N[C@@H](CCCCN)C(=O)N[C@@H](CCCCN)C(=O)N[C@@H](Cc1ccc(O)cc1)C(=O)N[C@@H](CC(C)C)C(=O)N[C@@H](C)C(=O)N[C@@H](C)C(=O)N[C@H](C(=O)N[C@@H](CC(C)C)C(N)=O)C(C)C)C(C)C)[C@@H](C)O
EC50 (VPAC1R), cAMP inducing effect (VPAC1 receptor): 0.143 nM | EC50 (PAC1R), cAMP inducing effect (PAC1 receptor): 0.089 nM

B5: Peptide 29 (peptide)
peptide: HSXGIFTXAYSRYRKQLAVKKYLAAVL
modifications: N-terminal mesyl (Ms-); Tz (aspartic acid with carboxyl group replaced by tetrazole) at positions 3 and 8; C-terminal amide (NH2)
EC50 (VPAC1R), cAMP inducing effect (VPAC1 receptor): 0.09 nM | EC50 (PAC1R), cAMP inducing effect (PAC1 receptor): 0.025 nM
